Reference: patent US20200024322A1 (Eli Lilly, published 2020)
Numbered stars: 1 amine (or outer) side, 2 acyl side, 3 side chain; on linkers, the order of the positions; unused ones are H or OH. Square brackets hold non-standard residues; d marks the D form. Side chains are listed from the residue outwards. Ends that are not written are not given here. * marks the point of attachment. C20 diacid = O=C(O)CCCCCCCCCCCCCCCCCCC(=O)*; γGlu = O=C(O)[C@H](CCC(=O)[*:2])N[*:1]; AEEA = NCCOCCOCC(=O)O; Aib = CC(C)(N)C(=O)O

T1: human GIP receptor (human, UniProt P48546 22-466)
T1 construct: whole, on cells; Used as crude membranes of stably transfected CHO cells; also called hGIPR
T1 sequence (looked up): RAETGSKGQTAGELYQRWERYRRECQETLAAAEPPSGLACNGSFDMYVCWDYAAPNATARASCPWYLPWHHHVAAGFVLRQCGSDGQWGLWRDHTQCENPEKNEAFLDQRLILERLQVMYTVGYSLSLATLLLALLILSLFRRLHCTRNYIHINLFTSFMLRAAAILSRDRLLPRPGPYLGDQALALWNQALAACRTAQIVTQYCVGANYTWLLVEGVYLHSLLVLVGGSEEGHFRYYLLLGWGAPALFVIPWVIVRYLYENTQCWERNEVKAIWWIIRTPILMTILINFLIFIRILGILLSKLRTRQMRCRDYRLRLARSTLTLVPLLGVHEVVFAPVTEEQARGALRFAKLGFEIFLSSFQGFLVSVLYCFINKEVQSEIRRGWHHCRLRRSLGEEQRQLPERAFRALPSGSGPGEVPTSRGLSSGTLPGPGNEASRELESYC

B1: Example 29 (peptide)
peptide: Y[Aib]EGTFTSDYSILLDK([AEEA-AEEA-γGlu-C20 diacid])IAQ[Aib]AFIEYLIEGGPSSGAPPPS-NH2
modifications: N-terminus assumed
SMILES: CC[C@H](C)[C@H](NC(=O)[C@H](CCCCNC(=O)COCCOCCNC(=O)COCCOCCNC(=O)CC[C@H](NC(=O)CCCCCCCCCCCCCCCCCCC(=O)O)C(=O)O)NC(=O)[C@H](CC(=O)O)NC(=O)[C@H](CC(C)C)NC(=O)[C@H](CC(C)C)NC(=O)[C@@H](NC(=O)[C@H](CO)NC(=O)[C@H](Cc1ccc(O)cc1)NC(=O)[C@H](CC(=O)O)NC(=O)[C@H](CO)NC(=O)[C@@H](NC(=O)[C@H](Cc1ccccc1)NC(=O)[C@@H](NC(=O)CNC(=O)[C@H](CCC(=O)O)NC(=O)C(C)(C)NC(=O)[C@@H](N)Cc1ccc(O)cc1)[C@@H](C)O)[C@@H](C)O)[C@@H](C)CC)C(=O)N[C@@H](C)C(=O)N[C@@H](CCC(N)=O)C(=O)NC(C)(C)C(=O)N[C@@H](C)C(=O)N[C@@H](Cc1ccccc1)C(=O)N[C@H](C(=O)N[C@@H](CCC(=O)O)C(=O)N[C@@H](Cc1ccc(O)cc1)C(=O)N[C@@H](CC(C)C)C(=O)N[C@H](C(=O)N[C@@H](CCC(=O)O)C(=O)NCC(=O)NCC(=O)N1CCC[C@H]1C(=O)N[C@@H](CO)C(=O)N[C@@H](CO)C(=O)NCC(=O)N[C@@H](C)C(=O)N1CCC[C@H]1C(=O)N1CCC[C@H]1C(=O)N1CCC[C@H]1C(=O)N[C@@H](CO)C(N)=O)[C@@H](C)CC)[C@@H](C)CC
B2: Example 8 (peptide)
peptide: YXEGTFTSDYSILLDKKAQXAFIEYLIEGGPSSGAPPPS
modifications: Aib2; K17((2-[2-(2-Amino-ethoxy)-ethoxy]-acetyl)2-(γ-Glu)-CO-(CH2)18-CO2H); Aib20; C-terminal NH2
B3: Example 9 (peptide)
peptide: Y[Aib]EGTFTSDYSILLDSK([AEEA-AEEA-γGlu-C20 diacid])AQ[Aib]AFIEYLIEGGPSSGAPPPS-NH2
modifications: N-terminus assumed
SMILES: CC[C@H](C)[C@H](NC(=O)[C@H](CC(C)C)NC(=O)[C@H](Cc1ccc(O)cc1)NC(=O)[C@H](CCC(=O)O)NC(=O)[C@@H](NC(=O)[C@H](Cc1ccccc1)NC(=O)[C@H](C)NC(=O)C(C)(C)NC(=O)[C@H](CCC(N)=O)NC(=O)[C@H](C)NC(=O)[C@H](CCCCNC(=O)COCCOCCNC(=O)COCCOCCNC(=O)CC[C@H](NC(=O)CCCCCCCCCCCCCCCCCCC(=O)O)C(=O)O)NC(=O)[C@H](CO)NC(=O)[C@H](CC(=O)O)NC(=O)[C@H](CC(C)C)NC(=O)[C@H](CC(C)C)NC(=O)[C@@H](NC(=O)[C@H](CO)NC(=O)[C@H](Cc1ccc(O)cc1)NC(=O)[C@H](CC(=O)O)NC(=O)[C@H](CO)NC(=O)[C@@H](NC(=O)[C@H](Cc1ccccc1)NC(=O)[C@@H](NC(=O)CNC(=O)[C@H](CCC(=O)O)NC(=O)C(C)(C)NC(=O)[C@@H](N)Cc1ccc(O)cc1)[C@@H](C)O)[C@@H](C)O)[C@@H](C)CC)[C@@H](C)CC)C(=O)N[C@@H](CCC(=O)O)C(=O)NCC(=O)NCC(=O)N1CCC[C@H]1C(=O)N[C@@H](CO)C(=O)N[C@@H](CO)C(=O)NCC(=O)N[C@@H](C)C(=O)N1CCC[C@H]1C(=O)N1CCC[C@H]1C(=O)N1CCC[C@H]1C(=O)N[C@@H](CO)C(N)=O
B4: Example 6 (peptide)
peptide: Y[Aib]EGTFTSDYSILLDKK([AEEA-AEEA-γGlu-C20 diacid])AQ[Aib]AFIEYLLEGGPSSGAPPPS-NH2
modifications: N-terminus assumed
SMILES: CC[C@H](C)[C@H](NC(=O)[C@H](Cc1ccccc1)NC(=O)[C@H](C)NC(=O)C(C)(C)NC(=O)[C@H](CCC(N)=O)NC(=O)[C@H](C)NC(=O)[C@H](CCCCNC(=O)COCCOCCNC(=O)COCCOCCNC(=O)CC[C@H](NC(=O)CCCCCCCCCCCCCCCCCCC(=O)O)C(=O)O)NC(=O)[C@H](CCCCN)NC(=O)[C@H](CC(=O)O)NC(=O)[C@H](CC(C)C)NC(=O)[C@H](CC(C)C)NC(=O)[C@@H](NC(=O)[C@H](CO)NC(=O)[C@H](Cc1ccc(O)cc1)NC(=O)[C@H](CC(=O)O)NC(=O)[C@H](CO)NC(=O)[C@@H](NC(=O)[C@H](Cc1ccccc1)NC(=O)[C@@H](NC(=O)CNC(=O)[C@H](CCC(=O)O)NC(=O)C(C)(C)NC(=O)[C@@H](N)Cc1ccc(O)cc1)[C@@H](C)O)[C@@H](C)O)[C@@H](C)CC)C(=O)N[C@@H](CCC(=O)O)C(=O)N[C@@H](Cc1ccc(O)cc1)C(=O)N[C@@H](CC(C)C)C(=O)N[C@@H](CC(C)C)C(=O)N[C@@H](CCC(=O)O)C(=O)NCC(=O)NCC(=O)N1CCC[C@H]1C(=O)N[C@@H](CO)C(=O)N[C@@H](CO)C(=O)NCC(=O)N[C@@H](C)C(=O)N1CCC[C@H]1C(=O)N1CCC[C@H]1C(=O)N1CCC[C@H]1C(=O)N[C@@H](CO)C(N)=O
B5: Example 7 (peptide)
peptide: Y[Aib]EGTFTSDYSILLDSK([AEEA-AEEA-γGlu-C20 diacid])AQ[Aib]AFIEYLLEGGPSSGAPPPS-NH2
modifications: N-terminus assumed
SMILES: CC[C@H](C)[C@H](NC(=O)[C@H](Cc1ccccc1)NC(=O)[C@H](C)NC(=O)C(C)(C)NC(=O)[C@H](CCC(N)=O)NC(=O)[C@H](C)NC(=O)[C@H](CCCCNC(=O)COCCOCCNC(=O)COCCOCCNC(=O)CC[C@H](NC(=O)CCCCCCCCCCCCCCCCCCC(=O)O)C(=O)O)NC(=O)[C@H](CO)NC(=O)[C@H](CC(=O)O)NC(=O)[C@H](CC(C)C)NC(=O)[C@H](CC(C)C)NC(=O)[C@@H](NC(=O)[C@H](CO)NC(=O)[C@H](Cc1ccc(O)cc1)NC(=O)[C@H](CC(=O)O)NC(=O)[C@H](CO)NC(=O)[C@@H](NC(=O)[C@H](Cc1ccccc1)NC(=O)[C@@H](NC(=O)CNC(=O)[C@H](CCC(=O)O)NC(=O)C(C)(C)NC(=O)[C@@H](N)Cc1ccc(O)cc1)[C@@H](C)O)[C@@H](C)O)[C@@H](C)CC)C(=O)N[C@@H](CCC(=O)O)C(=O)N[C@@H](Cc1ccc(O)cc1)C(=O)N[C@@H](CC(C)C)C(=O)N[C@@H](CC(C)C)C(=O)N[C@@H](CCC(=O)O)C(=O)NCC(=O)NCC(=O)N1CCC[C@H]1C(=O)N[C@@H](CO)C(=O)N[C@@H](CO)C(=O)NCC(=O)N[C@@H](C)C(=O)N1CCC[C@H]1C(=O)N1CCC[C@H]1C(=O)N1CCC[C@H]1C(=O)N[C@@H](CO)C(N)=O
B6: Example 24 (peptide)
peptide: Y[Aib]EGTFTSDYK([AEEA-AEEA-γGlu-C20 diacid])ILLDKIAQ[Aib]AFIEYLIEGGPSSGAPPPS-NH2
modifications: N-terminus assumed
SMILES: CC[C@H](C)[C@H](NC(=O)[C@H](CCCCN)NC(=O)[C@H](CC(=O)O)NC(=O)[C@H](CC(C)C)NC(=O)[C@H](CC(C)C)NC(=O)[C@@H](NC(=O)[C@H](CCCCNC(=O)COCCOCCNC(=O)COCCOCCNC(=O)CC[C@H](NC(=O)CCCCCCCCCCCCCCCCCCC(=O)O)C(=O)O)NC(=O)[C@H](Cc1ccc(O)cc1)NC(=O)[C@H](CC(=O)O)NC(=O)[C@H](CO)NC(=O)[C@@H](NC(=O)[C@H](Cc1ccccc1)NC(=O)[C@@H](NC(=O)CNC(=O)[C@H](CCC(=O)O)NC(=O)C(C)(C)NC(=O)[C@@H](N)Cc1ccc(O)cc1)[C@@H](C)O)[C@@H](C)O)[C@@H](C)CC)C(=O)N[C@@H](C)C(=O)N[C@@H](CCC(N)=O)C(=O)NC(C)(C)C(=O)N[C@@H](C)C(=O)N[C@@H](Cc1ccccc1)C(=O)N[C@H](C(=O)N[C@@H](CCC(=O)O)C(=O)N[C@@H](Cc1ccc(O)cc1)C(=O)N[C@@H](CC(C)C)C(=O)N[C@H](C(=O)N[C@@H](CCC(=O)O)C(=O)NCC(=O)NCC(=O)N1CCC[C@H]1C(=O)N[C@@H](CO)C(=O)N[C@@H](CO)C(=O)NCC(=O)N[C@@H](C)C(=O)N1CCC[C@H]1C(=O)N1CCC[C@H]1C(=O)N1CCC[C@H]1C(=O)N[C@@H](CO)C(N)=O)[C@@H](C)CC)[C@@H](C)CC

Molecular target: T2, human GLP-1 receptor (human, UniProt P43220 24-463)
T2 construct: whole, on cells; Used as crude membranes of stably transfected HEK293 cells; also called hGLP1R; hGLP-1R
Assay: SPA, [125I]-GLP-1 displacement, hGLP-1R membranes

Binder	Ki [nM]
B1	8
B2	2.84
B3	14.9
B4	6.71
B5	43.3
B6	5.04

Molecular target: T1, human GIP receptor
Assay: SPA, [125I]-GIP displacement, hGIPR membranes

Binder	Ki [nM]
B1	0.377
B2	0.0772
B3	0.127
B4	0.0835
B5	0.252
B6	0.232

Molecular target: T3, human glucagon receptor (human, UniProt P47871 26-477)
T3 construct: whole, on cells; Used as crude membranes of stably transfected HEK293 cells; also called hGcgR; hGLcgR
T3 sequence (P47871 26-477): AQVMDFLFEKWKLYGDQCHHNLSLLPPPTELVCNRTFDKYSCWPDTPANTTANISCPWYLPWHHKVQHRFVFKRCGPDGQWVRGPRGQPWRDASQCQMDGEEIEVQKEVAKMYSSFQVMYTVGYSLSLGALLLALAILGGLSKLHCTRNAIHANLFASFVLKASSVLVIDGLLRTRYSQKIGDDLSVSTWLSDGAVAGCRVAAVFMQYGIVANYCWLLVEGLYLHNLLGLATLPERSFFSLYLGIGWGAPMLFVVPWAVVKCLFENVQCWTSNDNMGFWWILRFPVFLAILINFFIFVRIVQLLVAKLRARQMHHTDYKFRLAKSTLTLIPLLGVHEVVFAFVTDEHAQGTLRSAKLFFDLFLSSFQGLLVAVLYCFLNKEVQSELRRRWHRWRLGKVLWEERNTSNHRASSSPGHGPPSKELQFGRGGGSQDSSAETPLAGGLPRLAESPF
Assay: SPA, [125I]-Gcg displacement, hGcgR membranes

Binder	Ki [nM]
B1	132
B2	206
B3	375
B4	55.8
B5	198
B6	49.8
